Test results: patent US20230159646A1 (IBIO, published 2023)

Experiments:
[1] = molecular target: T1, human CD25 (Sino Biologicals, 10165-H08H) (human, UniProt P01589 22-213); test: ELISA, immobilized human CD25; average of n>=3, SD 3.2
T1 construct: Bought recombinant protein coated on ELISA plates; also called immobilized human CD25; IL2RA
T1 sequence (looked up): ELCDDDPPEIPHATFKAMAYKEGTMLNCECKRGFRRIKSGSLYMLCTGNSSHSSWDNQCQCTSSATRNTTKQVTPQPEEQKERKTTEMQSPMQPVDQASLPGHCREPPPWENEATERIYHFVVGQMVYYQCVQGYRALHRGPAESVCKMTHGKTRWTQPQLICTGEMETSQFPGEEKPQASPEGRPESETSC

[2] = molecular target: T2, CD25 endogenously expressed on SUDHL-1 human lymphoma cell line and on induced human Treg (iTreg) (human, UniProt P01589 22-272); test: flow cytometry, SUDHL-1 cells; average of n>=6, SD 38.12
T2 construct: whole, on cells; also called CD25 on SUDHL-1 and iTreg; CD25 expressing SUDHL-1
T2 sequence (looked up): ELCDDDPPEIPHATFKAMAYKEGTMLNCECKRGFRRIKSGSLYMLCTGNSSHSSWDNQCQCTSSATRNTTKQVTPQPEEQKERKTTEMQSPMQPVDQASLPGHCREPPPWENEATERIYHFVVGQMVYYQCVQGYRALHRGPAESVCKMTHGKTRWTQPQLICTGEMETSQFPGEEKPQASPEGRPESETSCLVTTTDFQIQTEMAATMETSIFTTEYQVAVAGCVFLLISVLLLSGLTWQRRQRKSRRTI

[3] = molecular target: T3, CD25 (as used in the Carterra LSA kinetics; species and construct not stated) (Homo sapiens (Human), UniProt P01589 22-240); test: Carterra LSA kinetics; KD SD 1.27 nM
T3 sequence: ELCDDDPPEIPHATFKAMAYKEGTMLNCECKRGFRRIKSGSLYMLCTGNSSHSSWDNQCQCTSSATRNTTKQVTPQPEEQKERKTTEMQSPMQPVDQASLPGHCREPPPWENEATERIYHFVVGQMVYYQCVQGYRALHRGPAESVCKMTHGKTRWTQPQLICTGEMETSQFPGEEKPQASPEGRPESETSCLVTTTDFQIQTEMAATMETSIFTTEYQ

[4] = molecular target: T3, CD25 (as used in the Carterra LSA …); test: Carterra LSA kinetics
[5] = molecular target: T4, cynomolgus CD25 (Sino Biologicals, 90265-C08H) (cynomolgus, UniProt H6WS54 22-213); test: ELISA, immobilized cynomolgus CD25; average of n>=3, SD 9.8
T4 construct: Bought recombinant protein coated on ELISA plates; also called immobilized cynomolgus CD25; cynos monkey CD25
T4 sequence: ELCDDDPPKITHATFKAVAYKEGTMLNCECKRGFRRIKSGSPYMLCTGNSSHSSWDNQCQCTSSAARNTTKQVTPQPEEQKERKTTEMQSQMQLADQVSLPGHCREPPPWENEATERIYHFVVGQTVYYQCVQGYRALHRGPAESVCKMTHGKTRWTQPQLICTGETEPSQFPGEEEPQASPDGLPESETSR

[6] = molecular target: T2, CD25 endogenously expressed on SUDHL-1 …; test: flow cytometry, human iTreg cells; average of n=3, SD 83.94
[7] = molecular target: T5, mouse CD25 (immobilized, ELISA) (mouse, UniProt P01590 22-236, limits assumed); test: ELISA, immobilized mouse CD25 (N/A in the 14th table, row 10, column 6)
T5 construct: also called immobilized mouse CD25
T5 sequence (looked up): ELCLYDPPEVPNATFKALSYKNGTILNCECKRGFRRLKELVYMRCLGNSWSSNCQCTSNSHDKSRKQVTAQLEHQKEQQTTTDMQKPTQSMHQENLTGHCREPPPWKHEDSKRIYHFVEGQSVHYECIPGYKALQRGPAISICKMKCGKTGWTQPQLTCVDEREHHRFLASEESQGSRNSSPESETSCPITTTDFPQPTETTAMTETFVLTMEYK

[8] = molecular target: T5, mouse CD25 (immobilized, ELISA); test: ELISA, immobilized mouse CD25 (N/A in the 14th table, row 9, column 6)
[9] = molecular target: T5, mouse CD25 (immobilized, ELISA); test: ELISA, immobilized mouse CD25 (N/A in the 14th table, row 7, column 6)
[10] = molecular target: T2, CD25 endogenously expressed on SUDHL-1 …; test: flow cytometry, SUDHL-1 cells; average of n>=6, SD 39.9
[11] = molecular target: T3, CD25 (as used in the Carterra LSA …); test: Carterra LSA kinetics; KD SD 1.03 nM
[12] = molecular target: T5, mouse CD25 (immobilized, ELISA); test: ELISA, immobilized mouse CD25 (N/A in the 14th table, row 8, column 6)
[13] = molecular target: T4, cynomolgus CD25 (Sino Biologicals, …); test: ELISA, immobilized cynomolgus CD25; average of n>=3, SD 12.3
[14] = molecular target: T1, human CD25 (Sino Biologicals, …); test: ELISA, immobilized human CD25; average of n>=3, SD 2.5
[15] = molecular target: T2, CD25 endogenously expressed on SUDHL-1 …; test: flow cytometry, human iTreg cells; average of n=3, SD 40.50

B1: IBIO-101-plant-afuc (SD-889825-PC-A; IBIO-101, c-105 plant Afucosylated) (antibody, human IgG1, kappa, V domains shown)
VH: QVQLVQSGAEVKKPGASLKISCKGSGYTFTDYAMHWVRQAPGQGLEWIGVISTYSGDAIYAQKFQGRATMTVDTSTSTAYLELSSLRSEDTAVYYCARGVTFDYWGQGTTVTVSS
VL: DIQMTQSPSSLSASVGDRVTITCRASQDISNYLEWYQQKPGKAPKLLVYNAKTLAEGVPSRFSGSGSGTDFTLTISSLQPEDFGTYYCQHHYDTPYTFGQGTKLEIKR
modifications: afucosylated glycan (made in C105 dXT/FT plants deficient in fucosylation and xylosylation)
notes: Signal peptide of the entries is not part of the mature antibody; Human IgG1 constant region, afucosylated; also called RTX-003; hD11
How did the EC50 [1] turn out when B1 was run?
Its EC50 is 0.0174 µg/mL.

What about the EC50 [2] of the same binder?
Its EC50 is 0.123 µg/mL.

And the Kd [3]?
Its Kd is 4.27 nM.

And the koff [4]?
The koff was 0.00207 s⁻¹.

What about the kon [4] of the same binder?
The kon was 492000 M⁻¹ s⁻¹.

What about the EC50 [5] of the same binder?
The EC50 was 0.0424 µg/mL.

And the EC50 [6]?
The EC50 was 0.218 µg/mL.

Does B1 bind [7]?
Result: no binding (tested: 10 µg/mL)

B2: IBIO-101-plant-WT (SD-889825-PW-A; IBIO-101, wild-type plant) (antibody, human IgG1, kappa, V domains shown)
VH: B1 VH
VL: B1 VL
notes: Signal peptide of the entries is not part of the mature antibody; Made in wild-type Nicotiana benthamiana; human IgG1 constant region; also called RTX-003; hD11
Does B2 bind [8]?
Result: no binding (tested: 10 µg/mL)

B3: IBIO-101-CHO-WT (SD-889825-CW-A; IBIO-101, wild-type CHO cells) (antibody, human IgG1, kappa, V domains shown)
VH: B1 VH
VL: B1 VL
notes: the entries carry the plant extensin signal peptide, which is not part of the mature antibody; Human IgG1 constant region, fucosylated (WT); also called RTX-003; hD11
Does B3 bind [9]?
Result: no binding (tested: 10 µg/mL)

B4: IBIO-101-CHO-afuc (SD-889825-CG-A; IBIO-101, CHO cells Afucosylated) (antibody, human IgG1, kappa, V domains shown)
VH: B1 VH
VL: B1 VL
modifications: afucosylated glycan (as printed: afucosylated)
notes: signal peptide of the entries is not part of the mature antibody; Human IgG1 constant region, afucosylated; also called RTX-003; hD11
B4 was tested. Which EC50 [10] did it give?
The EC50 was 0.126 µg/mL.

What about the Kd [11] of the same binder?
The Kd was 3.9 nM.

Does B4 bind [12]?
Result: no binding (tested: 10 µg/mL)

What about the koff [4] of the same binder?
Its koff is 0.00119 s⁻¹.

What about the kon [4] of the same binder?
Its kon is 499000 M⁻¹ s⁻¹.

What about the EC50 [13] of the same binder?
The EC50 was 0.0431 µg/mL.

And the EC50 [14]?
Its EC50 is 0.0156 µg/mL.

What about the EC50 [15] of the same binder?
Its EC50 is 0.219 µg/mL.
